Legend:
[1] = Pharmacokinetics and drug distribution in HCT116 tumor-bearing mice (His immunoblotting of organs); type: in vivo, BALB/c mouse
Procedure: The […] were administered into the mouse by intraperitoneal injection once (left) or twice (right), and then the mouse was sacrificed on day 5. His expression was evaluated by immunoblotting (IB) in various organs from a mouse. The whole cell lysate was used for IB with anti-actin. Data represents four independent experiments with similar results. (B) The schematic diagram of an rGRA8 WT (upper)-treated xenograft model. […] The length and width of the tumors were measured using calipers, and a tumor volume was calculated every third day for 30 days. Individual tumor volumes from each mouse in each group were averaged and graphed over days after inoculation. Statistical significance was determined by two-way analysis of variance (ANOVA) with a Tukey's post-test; * P<0.05, *** P<0.001, compared with rVector. Each group included 10 mice. Data represents two independent experiments with similar results.

BMDM = assay: MTT assay of cell viability, bone marrow-derived macrophages (BMDM); type: cell-based, mouse; details: 20 μg/ml
Procedure: FIGS. 2A, 2B, 2C, 2D and 2E show the design and expression of an ATRAM-conjugated multifunctional GRA8 peptide (rATRAM-G8-M/AS)-based protein [(A) Subcellular fractionation of 293T cells was performed by expression of GST-GRA8 WT or incubation of WT rGRA8 with (1 μg/ml) BMDM and treatment with several Tat-GRA8 peptides for 6 hours (10 μM). Mitochondrial and cytosolic fractions were fractionated and analyzed for expression of GST by IB. The purity of the fractions was confirmed by blotting for VDAC (mitochondrial protein) and actin (cytosolic protein). (B) A mammalian GST-GRA8 construct was transfected into 293T cells for 12 hours with V5-ATP5A1 or Flag-SIRT3, and treated with several Tat-GRA8 peptides (10 μM) for 6 hours. The 293T cells were used for GST pulldown, followed by IB with αV5 or αFlag. WCL was used for IB with αGST, αV5, αFlag or αActin. […] (D) 6×His-rATRAM-GRA8-M/AS purified with bacteria and its mutants were analyzed by Coomassie blue staining (left) or αHis immunoblotting (IB; right). (E) BMDM was incubated with rATRAM-GRA8-M/AS and its mutant (20 μg/ml) for indicated times, and cell viability was then measured by an MMT assay. […]
As described in Non-Patent Document 1, the cell viability for a non-treated group was measured by an MTT assay. […] Using a UV/VIS spectrophotometer, each well of a plate was measured at 540 nm to measure relative cell viability.

ATP5A1, SIRT3 and ATP5C1 = assay: Target binding and OXPHOS profile in xenograft tumor lysates; type: in vivo, nude mouse; details: day 15
Procedure: The length and width of a tumor were measured using calipers every third day for 30 days. On day 15 after administration, the mice were euthanized, and the interaction with GRA8, acetylation levels of ATP5A1 or expression of OXPHOS was analyzed (A, lower). The representative images of tumors from mice treated with rATRAM-GRA8-M/AS or mutants on day 15 (right). […] Significant differences (* P<0.05; ** P<0.01; *** P<0.001) were determined by comparison with rVector. Each group included 10 mice. Data represents two independent experiments with similar results],
For immunoprecipitation, cells were obtained, and then lysed in an NP-40 buffer supplemented with a complete protease inhibitor cocktail (Roche). After pre-purification with A/G agarose beads at 4° C. for 1 hour, a whole cell lysate was used for immunoprecipitation with indicated antibodies. Generally, 1 to 4 μg of commercial antibodies were added to 1 ml of the cell lysate, and incubated at 4° C. for 8 to 12 hours. After the addition of the protein A/G agarose beads for 6 hours, the immunoprecipitate was washed with a lysis buffer several times and heated for 5 minutes to be eluted with an SDS loading buffer.
For immunoblotting, polypeptides were subjected to electrophoresis (PAGE) with an SDS-polyacrylamide gel, and then transferred to a PVDF membrane (Bio-Rad) for separation. Immunodetection was performed with a specific antibody. Antibody binding was visualized by chemiluminescence (ECL; Millipore) and detected by a Vilber chemiluminescence analyzer (Fusion SL 3; Vilber Lourmat).

[2] = tumor-bearing mice, intraperitoneal injection

B1: (GLAGLAGLLGLEGLLGLPLGLLEGLWLGLELEGN)2-GG-ATATTTTTTR-GG-YRFTVQTTQN (protein)
chain: GLAGLAGLLGLEGLLGLPLGLLEGLWLGLELEGNGLAGLAGLLGLEGLLGLPLGLLEGLWLGLELEGNGGATATTTTTTRGGYRFTVQTTQN
modifications: His tag; rATRAM-G8-M/AS
cancer cell targetability ([1]; immunoblotting, FIG. 5): excellent cancer cell targetability
disappearance from tumor [1, 2]: gradually disappeared by day 3
time the tumor location was maintained [1, 2]: up to 2 days
location of protein among organs ([1]; tumor-bearing mice, intraperitoneal injection, His immunoblotting): located in tumor cells
cytotoxicity in macrophages compared with vector control (BMDM): No significant cytotoxic differences
ATP5A1 deacetylation level in tumor lysates (ATP5A1, SIRT3 and ATP5C1): increased
binding of rGRA8 to ATP5A1, SIRT3 and ATP5C1 in vivo (ATP5A1, SIRT3 and ATP5C1): significantly increased
mitochondrial protein biosynthesis level in tumor lysates (ATP5A1, SIRT3 and ATP5C1): increased

— patent publication US11492376B2, “Toxoplasma gondii GRA8-derived recombinant peptides and composition for preventing or treating cancer comprising the same” (Industry—University Cooperation Foundation Hanyang …, priority 2019, dated 2022)
